Source: US11260100B2, “Compositions targeting the interaction domain between p27Kip1 and Brk and methods of use thereof to inhibit p27 Y phosphorylation and cdk4 activity” (The Research Foundation for the State University of New York, priority 2014, dated 2022)
Ends that are not written are not given here.

How the values were obtained:
metastatic breast cancer = metastatic breast cancer patients; cited from earlier work
[1] = molecular target: T1, Brk phosphorylation of p27 (Homo sapiens, UniProt P46527+Q13882); assay: In vitro Brk phosphorylation of p27 with competitor, pY88/pY74 immunoblot; format: biochemical; details: increasing amounts of competitor
T1 construct: were incubated with p27 before the addition of full length Brk and ATP; We incubated full length p27 with Src or Brk in the presence of ATP; purchased SignalChem (GST-PTK6/Brk) or Invitrogen (His-PTK6/Brk); host or cells: p27 made in house in E. coli
Method: (§1) FIGS. 3A-3D: SH3:PxxP interaction is required for p27 Y88 phosphorylation. (FIG. 3A) p27 and Brk were incubated with ATP and with increasing concentrations of the PxxP competitor, F58-106, followed by immunoblot analysis with pY88, pY74 and p27 antibodies. Lane 5: +equimolar amount of F58-106 and p27, lane 6: ++2.5×F58-106, lane 7: +++5×F58-106, lane 8: ++++10×F58-106. (FIG. 3B) GST-Brk, p27 and F58-106 were incubated, immunoprecipitated with GST antibodies, followed by immunblot analysis with GST or p27 antibodies. (FIG. 3C) Increasing amounts of GST-SH3, GST-SH2 or GST peptides were incubated with p27, followed by immunoblot analysis with pY88, pY74, p27 and GST antibodies. Lanes 3, 5, 7: 2.5× competitor, lanes 4, 6, […]: 5× competitor. (FIG. 3D) GST-SH3, GST-SH2 or GST peptides were incubated with p27 or ΔK1/K3, followed by metal agarose chromatography and immunoblot analysis with GST and p27 antibodies. Loading control: GST peptides added to the reaction which are not representative of association.
FIGS. 8A-8G: Alt Brk (SEQ ID NO: 17) acts as an endogenous inhibitor of Brk. (FIG. 8A) Flag tagged WT p27 was incubated with increasing amount of Flag tagged Alt-Brk (lanes 5-7) in presence of equal amount of Brk. Lane 5: +equimolar Brk and Alt, lane 6: ++2.5×Alt, lane 7: +++5×Alt Immunoblot analysis was performed using Flag, pY88 and pY74 antibodies. (FIG. 8B) Alt-Brk expressing cells were plated on day 0. They were induced (+Tet) or uninduced (−Tet) on day 1 and cells were harvested on days 2, 3 and 4 Immunoblot analysis was performed using N-terminal Brk, C-terminal Brk, Rb, Ser780 pRb, Flag or Actin antibodies. (FIG. 8C) p27 was immunoprecipitated from induced (+) or un-induced (−) Alt Brk expressing cells and immunoblot analysis was performed with p27, pY88 and pY74 antibodies. (FIG. 8D) Alt Brk or TRE3G vector alone cells were treated with + or −Tet and cell counts were used to monitor proliferation. […] (FIG. 8F) p27 was immunoprecipitated from MCF7 cells that were either contact arrested (G0), asynchronous (A), or serum starved with 1% and 0% serum for 48 h. Immunoblot analysis was performed to probe for p27, pY88 and pY74. IgG and Mv1Lu lysates served as a negative control. (FIG. 8G) Expression of WT or mutant p27s was induced by adding Tetracycline to the culture media. p27 was immunoprecipitated from cell lysates and probed for p27, pY88 and pY74 Immunoprecipitation with IgG served as a negative control.
It appeared that the SH3:PxxP interaction was required for Y88 phosphorylation. […]
To directly verify this, we expressed a Flag-tagged Alt-Brk in bacteria and purified this 15 Kd protein (FIG. 8A). When p27 was incubated with Brk, Y88 and Y74 phosphorylation was detected by immunoblot analysis (FIG. 8A, lane 3). […]

GST-Brk = molecular target: T2, GST-Brk (Homo sapiens, UniProt Q13882); assay: GST immunoprecipitation of GST-Brk with p27 and/or F58-106; format: binding
T2 construct: this K1-containing peptide was sufficient to associate with full length Brk; purchased SignalChem
Method: as §1
We then performed the converse reaction, and increasing amounts of individual recombinant, GST-tagged pieces of Brk (GST-SH2, GST-SH3) or GST peptides were incubated with p27 before the addition of full length Brk and ATP. The reactions were probed by immunoblot analysis with pY88 and pY74 antibodies (FIG. 3C).

ΔK1/K3 p27 = molecular target: T3, ΔK1/K3 p27 (Homo sapiens, UniProt P46527, K189A/K190A/P188A/P191A/P91A/P92A/P94A/P95A); assay: Metal agarose chromatography of His-ΔK1/K3 p27 with GST peptides; format: binding; details: absence of ATP
T3 construct: made in house; host or cells: E. coli
Method: as §1
(§2) We incubated the GST, GST-SH3, or GST-SH2 peptides with His-tagged versions of p27 and the ΔK1/K3 mutant, isolated complexes by metal agarose chromatography and performed immunoblot analysis with GST antibodies (FIG. 3D). […] However, this binding was independent of the PxxP K1 site (FIG. 3D, lane 3). […]

WT p27 = molecular target: T4, WT p27 (Homo sapiens, UniProt P46527); assay: Metal agarose chromatography of His-p27 with GST peptides; format: binding; details: absence of ATP
T4 construct: made in house; host or cells: E. coli
Method: as §1, §2

Brk SH3 domain = molecular target: T5, Brk SH3 domain (Homo sapiens, UniProt Q13882); assay: Phage-ELISA of GST-PxxP peptides (K1, K2, K3) against SH3 phages; format: binding; details: GST-fusion PxxP peptides
T5 construct: made in house; host or cells: phage supernatants
T5 sequence (Q13882 8-72 limits assumed): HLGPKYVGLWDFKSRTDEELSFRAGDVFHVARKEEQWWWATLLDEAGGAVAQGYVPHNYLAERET
Source text: (§3) FIGS. 1A-1C: Brk binds to p27 with high affinity in vitro. (FIG. 1A) p27 sequence highlighting the proline tracts of the three putative SH3 domain recruitment sites (PxxP): K1 (90-96), K2 (114-117) and K3 (188-195) (SEQ ID NO: 1). Phage-ELISA-analysis of SFK SH3 interactions with p27 (FIG. 1B) or p27's PxxP motifs (FIG. 1C). Data shown is the mean of three independent experiments±standard deviation after normalization and subtraction of the background binding to GST. (FIG. 1C) Recombinantly produced GST-K1, (amino acids 85-102 of SEQ ID NO: 1), −K2, (amino acids 108-123 of SEQ ID NO: 1), −K3 (amino acids 182-197 of SEQ ID NO: 1), or GST was immobilized in 96-well plates and analyzed for binding of the phages with the Brk-, Frk-, Yes-, or Abl-SH3 domain.
The following materials and methods are provided to facilitate the practice of the present invention. • Antibodies. Mouse Anti-p27(Kip1), BD Biosciences 610242. Cdk4 (DCS-35), p27 (N-20), C-terminal Brk (C-18), Brk (D-6), N-terminal Brk (N-20), c-Src (SC-18), Cyclin D1 (H 295), ARHGDIA (A-20), Santa Cruz Biotechnology. Anti-beta galactosidase antibody is from RND systems (af6464). Phosphotyrosine (P-Tyr-100), Cell Signaling Technology. Cdk4 (C-term, Cat. No. AP7520b), Abgent. GST (PRB-112C), Covance. Flag (F3165), Actin (A2066), Sigma Aldrich. Phospho Brk (Tyr342), EMD Millipore. pY74, Y88 and Y89 phospho-specific antibodies were generated by immunization of rabbits with phosphor-specific p27 peptides (Invitrogen). Negative- and positive-affinity chromatography with non-phosphorylated and phosphorylated peptides respectively, were performed to purify the antibodies. The antibodies are specific only for Y88,Y89, Y74 phosphorylation respectively (FIG. 2B, data not shown). • Enzymes. Gst-PTK6/Brk, GST-Src (SignalChem), His-Abl (New England Biolabs), His-PTK6/Brk, His-Src (Invitrogen) were used according to manufacturer's specifications. […] Phage supernatants were generated and binding of SH3-phages to recombinantly produced His-tagged-p27 or GST-PxxP-peptides was analyzed as described (28). • Construction of mutants and peptides. […]

full-length p27 = molecular target: T6, full-length p27 (Homo sapiens, UniProt P46527); assay: Phage-ELISA of SFK SH3 domain interactions with p27; details: phages carry many reiterated SH3 domains, which would enhance binding; read-out: Kd of interaction with full-length p27
T6 construct: made in house; host or cells: E. coli
Source text: as §3
The following materials and methods are provided to facilitate the practice of the present invention. • Antibodies. Mouse Anti-p27(Kip1), BD Biosciences 610242. Cdk4 (DCS-35), p27 (N-20), C-terminal Brk (C-18), Brk (D-6), N-terminal Brk (N-20), c-Src (SC-18), Cyclin D1 (H 295), ARHGDIA (A-20), Santa Cruz Biotechnology. Anti-beta galactosidase antibody is from RND systems (af6464). Phosphotyrosine (P-Tyr-100), Cell Signaling Technology. […] Phage supernatants were generated and binding of SH3-phages to recombinantly produced His-tagged-p27 or GST-PxxP-peptides was analyzed as described (28). • Construction of mutants and peptides. […]

T1 sequence (Q13882 whole entry): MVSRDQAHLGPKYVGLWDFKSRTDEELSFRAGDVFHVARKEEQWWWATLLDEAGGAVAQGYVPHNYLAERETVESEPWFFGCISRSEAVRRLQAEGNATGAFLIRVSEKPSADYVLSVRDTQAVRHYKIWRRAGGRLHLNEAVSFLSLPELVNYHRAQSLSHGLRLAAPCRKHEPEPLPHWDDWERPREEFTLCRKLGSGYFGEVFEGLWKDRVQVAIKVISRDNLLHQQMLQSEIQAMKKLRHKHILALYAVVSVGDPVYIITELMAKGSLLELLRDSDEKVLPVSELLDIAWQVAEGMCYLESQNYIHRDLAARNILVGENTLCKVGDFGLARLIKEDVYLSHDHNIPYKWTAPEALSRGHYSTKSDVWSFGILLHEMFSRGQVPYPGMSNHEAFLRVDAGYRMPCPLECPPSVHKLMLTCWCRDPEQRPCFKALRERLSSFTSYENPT
T1 sequence (P46527 whole entry): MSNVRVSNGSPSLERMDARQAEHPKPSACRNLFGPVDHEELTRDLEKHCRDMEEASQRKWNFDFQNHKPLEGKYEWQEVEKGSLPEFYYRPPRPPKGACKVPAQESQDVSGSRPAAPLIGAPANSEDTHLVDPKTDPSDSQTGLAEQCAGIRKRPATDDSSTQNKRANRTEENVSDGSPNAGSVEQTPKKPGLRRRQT
T2 sequence (Q13882 whole entry): as the sequence (Q13882 whole entry) above
T4 sequence (P46527 whole entry): as the sequence (P46527 whole entry) above
T6 sequence (P46527 whole entry, the tested form may be a part): as the sequence (P46527 whole entry) above
T3 sequence (P46527 whole entry P91A/P92A/P94A/P95A/P188A/K189A/K190A/P191A): as the sequence (P46527 whole entry) above, with P91A, P92A, P94A, P95A, P188A, K189A, K190A, P191A counted along it

Molecule: N#Cc1ccc(C(c2ccc(C#N)cc2)n2cncn2)cc1 [letrozole]
- median PFS (metastatic breast cancer): 10.2 months

Molecule: F58-106: Flagged tagged K1-site containing peptide, p27 residues 58 to 106 (RKWNFDFQNHKPLEGKYEWQEVEKGSLPEFYYRPPRPPKGACKVPAQES; also: Flag tag, site not given here)
- p27 Y74 phosphorylation by Brk [1]: only slightly reduced
- p27 Y88 phosphorylation by Brk [1]: decreased
- association with GST-Brk (GST-Brk): interacted

Molecule: GST-SH2: recombinant GST-tagged SH2 piece of Brk [reference compound]
- association with ΔK1/K3 p27 (ΔK1/K3 p27): bound
- p27 Y74 phosphorylation by Brk [1]: did not reduce
- p27 Y88 phosphorylation by Brk [1]: did not reduce
- association with WT p27 (WT p27): bound

Molecule: K1: GST-fusion peptide, amino acids 85-102 of p27 (SEQ ID NO: 1) (PEFYYRPPRPPKGACKVP; also: GST-fusion peptide; listed as Homo sapiens)
- interaction with Brk SH3 domain (Brk SH3 domain): weakly

Molecule: K2: GST-fusion peptide, amino acids 108-123 of p27 (SEQ ID NO: 1) (DVSGSRPAAPLIGAPA; also: GST-fusion peptide; listed as Homo sapiens)
- interaction with Brk SH3 domain (Brk SH3 domain): No SH3 domains interacted

Molecule: K3: GST-fusion peptide, amino acids 182-197 of p27 (SEQ ID NO: 1) (GSVEQTPKKPGLRRRQ; also: GST-fusion peptide; listed as Homo sapiens)
- interaction with Brk SH3 domain (Brk SH3 domain): strongly

Molecule: SH3 domain of Brk: Brk SH3 domain displayed on phages (SEQ ID NO: 2)
- Kd (full-length p27): 0.25 µM
